Values of other authors as cited in article PMC5691641.

Biological target: Bax (Homo sapiens) (UniProt Q07812)
Sequence (Q07812 whole entry): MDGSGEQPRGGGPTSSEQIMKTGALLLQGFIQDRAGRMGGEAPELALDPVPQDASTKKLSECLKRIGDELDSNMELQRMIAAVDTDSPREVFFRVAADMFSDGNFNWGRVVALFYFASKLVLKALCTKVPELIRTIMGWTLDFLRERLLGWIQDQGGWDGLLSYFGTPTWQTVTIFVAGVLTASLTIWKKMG

Chain of vMIA (P16778 23-487): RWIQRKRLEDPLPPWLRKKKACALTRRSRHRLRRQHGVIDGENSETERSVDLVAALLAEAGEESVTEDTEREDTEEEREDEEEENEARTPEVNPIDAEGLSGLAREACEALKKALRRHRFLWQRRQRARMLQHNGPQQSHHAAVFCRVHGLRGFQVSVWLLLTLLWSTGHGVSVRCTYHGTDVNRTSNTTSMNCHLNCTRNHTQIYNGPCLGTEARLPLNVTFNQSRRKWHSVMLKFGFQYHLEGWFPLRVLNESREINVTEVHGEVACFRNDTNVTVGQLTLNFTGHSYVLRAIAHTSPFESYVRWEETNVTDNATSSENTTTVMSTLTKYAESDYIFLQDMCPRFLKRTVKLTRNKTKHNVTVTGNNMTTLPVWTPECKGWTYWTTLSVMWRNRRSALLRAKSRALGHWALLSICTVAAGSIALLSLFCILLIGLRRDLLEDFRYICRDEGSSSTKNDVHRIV

With vMIA (from UniProt P16778) as the substance, how does the Kd read?
Its Kd is 22 nM.
